According to publication PMC4297941 (Redox Biology, 2014):

T1: wild type human endothelial nitric oxide synthase (eNOS), histidine tagged, recombinant (human), P29474
T1 chain: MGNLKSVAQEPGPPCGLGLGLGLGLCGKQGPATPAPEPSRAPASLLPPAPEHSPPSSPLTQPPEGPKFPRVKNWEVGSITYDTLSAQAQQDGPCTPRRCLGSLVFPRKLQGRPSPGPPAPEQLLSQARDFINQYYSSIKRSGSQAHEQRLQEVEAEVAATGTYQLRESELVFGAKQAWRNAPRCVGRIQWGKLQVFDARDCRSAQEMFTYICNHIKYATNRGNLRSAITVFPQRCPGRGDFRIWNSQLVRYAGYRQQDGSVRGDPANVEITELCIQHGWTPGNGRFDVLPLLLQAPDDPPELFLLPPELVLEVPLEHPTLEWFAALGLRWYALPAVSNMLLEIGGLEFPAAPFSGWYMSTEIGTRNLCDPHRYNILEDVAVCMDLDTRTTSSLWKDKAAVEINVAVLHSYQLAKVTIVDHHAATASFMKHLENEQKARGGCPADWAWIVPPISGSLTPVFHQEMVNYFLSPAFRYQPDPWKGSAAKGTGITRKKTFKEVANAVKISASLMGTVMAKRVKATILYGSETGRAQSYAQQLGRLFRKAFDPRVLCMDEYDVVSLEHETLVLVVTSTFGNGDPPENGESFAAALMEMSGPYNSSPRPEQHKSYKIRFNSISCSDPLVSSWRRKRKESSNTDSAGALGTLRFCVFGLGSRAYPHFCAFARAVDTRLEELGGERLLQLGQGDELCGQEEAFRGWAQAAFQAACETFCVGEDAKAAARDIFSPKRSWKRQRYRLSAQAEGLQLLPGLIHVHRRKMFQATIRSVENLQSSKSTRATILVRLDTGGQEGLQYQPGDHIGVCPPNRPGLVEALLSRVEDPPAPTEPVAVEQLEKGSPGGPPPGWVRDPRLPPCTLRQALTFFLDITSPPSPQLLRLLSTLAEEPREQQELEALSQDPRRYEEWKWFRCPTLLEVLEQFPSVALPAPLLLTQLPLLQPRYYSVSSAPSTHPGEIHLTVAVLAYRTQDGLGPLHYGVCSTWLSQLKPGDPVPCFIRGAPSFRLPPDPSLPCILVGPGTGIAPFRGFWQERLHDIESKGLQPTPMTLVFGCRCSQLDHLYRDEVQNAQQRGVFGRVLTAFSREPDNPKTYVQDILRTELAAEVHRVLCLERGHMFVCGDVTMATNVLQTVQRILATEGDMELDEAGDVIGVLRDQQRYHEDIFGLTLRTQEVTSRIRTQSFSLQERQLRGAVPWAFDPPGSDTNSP


Assays:
[1] = target: T1, wild type human endothelial nitric …; assay: SEC; settings: remark: other sources report otherwise
[2] = target: the molecule itself; assay: SEC

Row | stoichiometry N [1] | Binder | stoichiometry N [2]
1 | 2 | wild type human endothelial nitric oxide synthase (eNOS), histidine tagged, recombinant, P29474 1-1203 (enzyme) MGNLKSVAQEPGPPCGLGLGLGLGLCGKQGPATPAPEPSRAPASLLPPAPEHSPPSSPLTQPPEGPKFPRVKNWEVGSITYDTLSAQAQQDGPCTPRRCLGSLVFPRKLQGRPSPGPPAPEQLLSQARDFINQYYSSIKRSGSQAHEQRLQEVEAEVAATGTYQLRESELVFGAKQAWRNAPRCVGRIQWGKLQVFDARDCRSAQEMFTYICNHIKYATNRGNLRSAITVFPQRCPGRGDFRIWNSQLVRYAGYRQQDGSVRGDPANVEITELCIQHGWTPGNGRFDVLPLLLQAPDDPPELFLLPPELVLEVPLEHPTLEWFAALGLRWYALPAVSNMLLEIGGLEFPAAPFSGWYMSTEIGTRNLCDPHRYNILEDVAVCMDLDTRTTSSLWKDKAAVEINVAVLHSYQLAKVTIVDHHAATASFMKHLENEQKARGGCPADWAWIVPPISGSLTPVFHQEMVNYFLSPAFRYQPDPWKGSAAKGTGITRKKTFKEVANAVKISASLMGTVMAKRVKATILYGSETGRAQSYAQQLGRLFRKAFDPRVLCMDEYDVVSLEHETLVLVVTSTFGNGDPPENGESFAAALMEMSGPYNSSPRPEQHKSYKIRFNSISCSDPLVSSWRRKRKESSNTDSAGALGTLRFCVFGLGSRAYPHFCAFARAVDTRLEELGGERLLQLGQGDELCGQEEAFRGWAQAAFQAACETFCVGEDAKAAARDIFSPKRSWKRQRYRLSAQAEGLQLLPGLIHVHRRKMFQATIRSVENLQSSKSTRATILVRLDTGGQEGLQYQPGDHIGVCPPNRPGLVEALLSRVEDPPAPTEPVAVEQLEKGSPGGPPPGWVRDPRLPPCTLRQALTFFLDITSPPSPQLLRLLSTLAEEPREQQELEALSQDPRRYEEWKWFRCPTLLEVLEQFPSVALPAPLLLTQLPLLQPRYYSVSSAPSTHPGEIHLTVAVLAYRTQDGLGPLHYGVCSTWLSQLKPGDPVPCFIRGAPSFRLPPDPSLPCILVGPGTGIAPFRGFWQERLHDIESKGLQPTPMTLVFGCRCSQLDHLYRDEVQNAQQRGVFGRVLTAFSREPDNPKTYVQDILRTELAAEVHRVLCLERGHMFVCGDVTMATNVLQTVQRILATEGDMELDEAGDVIGVLRDQQRYHEDIFGLTLRTQEVTSRIRTQSFSLQERQLRGAVPWAFDPPGSDTNSP | 
2 |  | C94R/C99R eNOS mutant, histidine tagged, recombinant (enzyme, human, UniProt P29474 1-1203, looked up) MGNLKSVAQEPGPPCGLGLGLGLGLCGKQGPATPAPEPSRAPASLLPPAPEHSPPSSPLTQPPEGPKFPRVKNWEVGSITYDTLSAQAQQDGPRTPRRRLGSLVFPRKLQGRPSPGPPAPEQLLSQARDFINQYYSSIKRSGSQAHEQRLQEVEAEVAATGTYQLRESELVFGAKQAWRNAPRCVGRIQWGKLQVFDARDCRSAQEMFTYICNHIKYATNRGNLRSAITVFPQRCPGRGDFRIWNSQLVRYAGYRQQDGSVRGDPANVEITELCIQHGWTPGNGRFDVLPLLLQAPDDPPELFLLPPELVLEVPLEHPTLEWFAALGLRWYALPAVSNMLLEIGGLEFPAAPFSGWYMSTEIGTRNLCDPHRYNILEDVAVCMDLDTRTTSSLWKDKAAVEINVAVLHSYQLAKVTIVDHHAATASFMKHLENEQKARGGCPADWAWIVPPISGSLTPVFHQEMVNYFLSPAFRYQPDPWKGSAAKGTGITRKKTFKEVANAVKISASLMGTVMAKRVKATILYGSETGRAQSYAQQLGRLFRKAFDPRVLCMDEYDVVSLEHETLVLVVTSTFGNGDPPENGESFAAALMEMSGPYNSSPRPEQHKSYKIRFNSISCSDPLVSSWRRKRKESSNTDSAGALGTLRFCVFGLGSRAYPHFCAFARAVDTRLEELGGERLLQLGQGDELCGQEEAFRGWAQAAFQAACETFCVGEDAKAAARDIFSPKRSWKRQRYRLSAQAEGLQLLPGLIHVHRRKMFQATIRSVENLQSSKSTRATILVRLDTGGQEGLQYQPGDHIGVCPPNRPGLVEALLSRVEDPPAPTEPVAVEQLEKGSPGGPPPGWVRDPRLPPCTLRQALTFFLDITSPPSPQLLRLLSTLAEEPREQQELEALSQDPRRYEEWKWFRCPTLLEVLEQFPSVALPAPLLLTQLPLLQPRYYSVSSAPSTHPGEIHLTVAVLAYRTQDGLGPLHYGVCSTWLSQLKPGDPVPCFIRGAPSFRLPPDPSLPCILVGPGTGIAPFRGFWQERLHDIESKGLQPTPMTLVFGCRCSQLDHLYRDEVQNAQQRGVFGRVLTAFSREPDNPKTYVQDILRTELAAEVHRVLCLERGHMFVCGDVTMATNVLQTVQRILATEGDMELDEAGDVIGVLRDQQRYHEDIFGLTLRTQEVTSRIRTQSFSLQERQLRGAVPWAFDPPGSDTNSP | 2
